Patent US20190040151A1
pEC50: −log10 of the molar value.

Tests used:
[1] = target: HER2 on the surface of N87 (NCI-N87) human gastric carcinoma cells (human) (UniProt P04626); experiment: cell-based or functional assay
[2] = target: HER2-ECD (human epidermal growth factor receptor 2-extracellular domain) (human) (UniProt P04626)

Substance	IC50 (pM), cytotoxicity on N87 cells (WST-1) [1] [pM]	pEC50 [2]
IgG1(trastuzumab)-AL1-PE38KDEL (antibody)	498	
scFv(trastuzumab)-PE38KDEL		9.82
